This note sets out measurements from PMC2892505, “SUMO-1 possesses DNA binding activity”.

Broadly, the stoichiometry N is the number of molecules, sites or subunits per partner or assembly.

Data set [1] addresses GST-SUMO-1. In words: cross-linking; about 100 ng protein without or with increasing dsDNA, 10 min 37°C in NMR buffer (100 mM Na2PO4 pH 6.6, 1 mM EDTA, 1 mM DTT), UV 312 nm 10 min, SDS-PAGE and western blot (anti-GST or anti-SUMO-1); also with DNaseI treatment. A general note: In western blotting, separated proteins are transferred to a membrane and probed.
The target in data set [2] is GST-SUMO-1 (human, UniProt P63165 1-101). In words: UV crosslinking, Western blot; complex migrates faster than with 65-mer; NMR: 100 mM NaPi pH 6.6, 1 mM DTT, 1 mM EDTA, temperature not stated; UV crosslink: 100 ng GST-SUMO-1 with 500 ng dsDNA, buffer not stated. Particulars: protein: recombinant; chain copies: 2; blunt.
The target of a further data set is SUMO-1 (human, UniProt P63165 1-101). In words: UV crosslinking, Western blot; NMR: 100 mM NaPi pH 6.6, 1 mM DTT, 1 mM EDTA, temperature not stated; UV crosslink: 100 ng GST-SUMO-1 with 500 ng dsDNA, buffer not stated. Particulars: protein: recombinant; tags: untagged (GST removed by thrombin); 15N-labeled for NMR; blunt.
Sequence of SUMO-1 (P63165 whole entry): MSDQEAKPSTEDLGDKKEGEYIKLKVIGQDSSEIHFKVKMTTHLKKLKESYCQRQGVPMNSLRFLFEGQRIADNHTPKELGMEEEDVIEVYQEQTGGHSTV

Sequence of GST-SUMO-1 (human, UniProt P63165 1-101) (P63165 whole entry): as above

The molecule GST-SUMO-1 returned a stoichiometry N with GST-SUMO-1 [1] of 2.

B1: 27-mer (dsDNA)
DNA 1: CGGGGCCGGGGCGGGCCGCGCAAGCAG
DNA 2: CTGCTTGCGCGGCCCGCCCCGGCCCCG
Regarding B1, the binding result with GST-SUMO-1 [2] and with SUMO-1 was “binds” each time.
